Laboratory results as given in the supplement of paper PMC9170038.

Each sequence was assayed on MS2 coat protein (assay: apparent KD of MS2 coat protein; higher = weaker reporter binding). Conditions: Eterna round: R107; input ligand: arginine 13.2 mM.
Protocol: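 RNA-MaP round R107: designed RNA switches with theophylline, tryptophan, arginine or FMN aptamers are transcribed on-chip within common flanks. They are titrated with SNAP-549-labelled MS2 coat protein in RNA-MaP buffer (100 mM Tris pH 7.5, 80 mM KCl, 4 mM MgCl2), without ligand or with the indicated ligand. Median apparent KD per design.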

Row | Sequence | apparent KD of MS2 coat protein [nM]
1 | AAAGCUACGUAAAAUAAAACUACAUGUGAAGGAGCGCGCGAAAGCGCAGGUAGGUCGCACAUGAGGAUCACCCAUGUCGUAGCAA [MAT - Exclusion Arginine A - Mod of Eli - D5] | 43.9
2 | UGUUUGGUGCGCGAGUGUUGGAUAAUUGAUACCAGUGUAGAUGUGCGCCCUUGGCAGCGAAUCCUAACAUGAGGAUCACCCAUGU [5.Y] | 38.2
3 | GGACAUGCAGGAAGGAGCGACACGCAGAAACUGCAAAAUCCUCCACACGAGGAUCACCCGUGUCAGGUAGGUCGCCUGCAUGUCG [ArgXB 15 #Zipper #MS2Left #StaticStem #Blueprint] | 88.8
4 | UGGCAGCACCUCAUGUGCUGCCAAGGUGAUACCAGCAUCGAAAGAUGCCCUUGGCAGCACCAACAUGAGGAUCACCCAUGUAAUA [(MT)''-(M)'-(T')-(Theo)-(Ms2)_Design1/22_7] | 26.8
5 | CUCGUCAACUCGGCCGCCACUGACGUGUGGUCAGGCCUGUAGAAACACAUGAGGAUCACCCAUGUCAGGACCGGGAGCUUUAUUA [theeternabot_exclusion_MS2_Trp_B_26] | 31.8
6 | UCGUGAGUUUCGGAUACCAGUGUUGUCGAUACAUGAGGAUCACCCAUGUUAGAGGAUGUACACCCUUGGCAGCCGGCUGUGGCGG [lplmullin] | 15.8
7 | ACAUGAGGAUCACCCAUGUAAGAUGCAGAAGGAGCGGGAAAUAACCCAGGUAGGUCGCUGCGGUUUGGAUUAUUGUGUUCGUGAA [#08 Exclusion - Arginine A] | 11.6
8 | AGUCUAUGGAGAGAUACCAGUGAGAGCCAUAGACAUGAGGAUCACCCAUGUGACAUGGAUCACCCUUGGCAGCUCAACGAGCUCU [#20 Same State - Theophylline B] | 41
9 | AAAAGAGGUGGAAGGAGCGGGAGACAUGAGGAUCACCCAUGUGAUGUGACGAAAGGGUCAGCCCAGGUAGGUCGCCAUGUCGAAA [yuyymullin] | 54.6
10 | UUAUAUACUACGGCCGCCACUGAACAUGAGGAUCACCCAUGUAAUGUUCAGAUUUUUUUUUUUUACAGGACCGGGUAGAAUUAAA [Tryptophan B 2] | 67.9
11 | CCAUGCAGGUCGGCCGCCACUACACACAUGAGGAUCACCCAUGUAGUUACUGGGUGAAGUGGCAGUAGGACCGGGACCUGCACAC [Brourdmod20] | 84
12 | GGCGCGAGCCAACAUGAGGAUCACCCAUGUCGAGGACCGGUACGGCCGCCACUCGAACGAGUGAAGCGCGCGCGCGCGCGCGCGC [Uaa] | 32.4
13 | ACAUGAGGAUCACCCAUGUGAUGGCACGAUACCAGCUGAUCCCGUGGCCCUUGGCAGCGUCCGGUGUGGUCCGGCGGGUGGGACG [qqwmullin] | 30.1
14 | UACAUGAGGAUCACCCAUGUAUAACCGGUACGAGGACCGGUACGGCCGCCACUCGAAACAUGAGGAUCACCCAUGUGCUACUAUU [Same State Trypophan A GF 22] | 25.3
15 | ACGUUCGCGGUAUCCAACCGGUUGUACAAACGAGGACCGGUACGGCCGCCACUCGUGAUUGUACAUGAGGAUCACCCAUGUGGCA [theeternabot_exclusion_MS2_Trp_A_28] | 18.7
16 | CAAAAUAUAACGGCCGCCACUUACUCAUGAGGUAACAACAUGAGGAUCACCCAUGUUUGAGGAUCAAGGACCGGGUUAUAUUUUG [AstrosSSTry#21] | 24.7
17 | CUUAUAUAUACGGCCGCCACUUACUCAUGAGGUAACAACAUGAGGAUCACCCAUGUUUGAGGAUCAAGGACCGGGUAUAUAUAAG [AstrosSSTry#18] | 23.2
18 | UUUAUAUAGACGGCCGCCACUGGAAUUAAUACAUGAGGAUCACCCAUGUAUAGAGAAUAAUAAUACAGGACCGGGUCUUCAUGAU [SS Tryp B Tesla 1.1] | 28.3
19 | CCAUCUACAUCGGCCGCCACUGAACCAAGGAGACAUGAGGAUCACCCAUGUAUGGGAAACCAUCAUAGGACCGGGAUGAUCUACC [doubleHook] | 95.2
20 | GGGUACAUCGCGGCCGCCACUUGUGUAAAUACAUGAGGAUCACCCAUGUCGAUGGAGACAUCGGGAAGGACCGGGUGAUGUACCG | 218
21 | CUACAUUUGUAGAAACCGGUCACCAUUACUCGAGGACCGGUACGGCCGCCACUCGUGUCAUGUGAUACAUGAGGAUCACCCAUGU [Tryptophan A 10] | 21.7
22 | AAAAUCCUACCUGAGGAUCACCCUGGUGAAGGAGCGCCCGAAAGGGCAGGUAGGUCGCACCUGAGGAUCACCCGGGUAACCUAAA [ArgEX 14 #DoubleMS2 #OpenEnded #AlternativeMS2] | 78.7
23 | GCACGGGCGAUCGGCACUUUUACUAAUAUACGAGGACCGGUACGGCCGCCACUCGAGCUAAGACAUGAGGAUCACCCAUGUAACG [theeternabot_exclusion_MS2_Trp_A_41] | 22
24 | ACGUAAUGCAGAAGGAGCGUCUGAUUUUAACAUGAGGAUCACCCAUGUAAUAUUUAUGGUAGACAGGUAGGUCGCUGAAGUACGA [JR_ExcArginiB_Sub002] | 14.8
25 | ACAUGAGGAUCACCCAUGUCACGGCACGAUACCAGCUGAUGCGGUGGCCCUUGGCAGCGUGACGUUUGGUCCCGCGGAUGACACG [qsmullin] | 86.4
26 | GCUGCUUAGGGAAGGAGCGCUGCGGAAUUGUGGAGGACAUGAGGAUCACCCAUGUUCCUGCGGCAGGUAGGUCGCUUUGGGCAGC [#17 Exclusion - Arginine B] | 32.8
27 | AGACUUCGCAUAGGAAAACUAUGUGAAGUCCGAGGACCGGUACGGCCGCCACUCGUCCUCACAUGAGGAUCACCCAUGUAAAUAA [#OpenEnded 2 #CuTurnoff #Tail] | 22.7
28 | GCUGUACCAUGAAGGAGCGCUUUAAUUAUAGAAGAUACAUGAGGAUCACCCAUGUUCCUCGAGCAGGUAGGUCGCAUGGUACAGC [SSAB #18] | 25.4
29 | AUGUCGUUGAAUAUAGCGGCUUGGAGUGAUACCAGAAUGAUCUAAUUCCCUUGGCAGCAUUACAUGAGGAUCACCCAUGUUCCAG [SSTheo A #22] | 27.8

Same assay, conditions: Eterna round: R107; input ligand: none

Row | Sequence | apparent KD of MS2 coat protein [nM]
30 | AAAGCUACGUAAAAUAAAACUACAUGUGAAGGAGCGCGCGAAAGCGCAGGUAGGUCGCACAUGAGGAUCACCCAUGUCGUAGCAA [MAT - Exclusion Arginine A - Mod of Eli - D5] | 63.4
31 | GGACAUGCAGGAAGGAGCGACACGCAGAAACUGCAAAAUCCUCCACACGAGGAUCACCCGUGUCAGGUAGGUCGCCUGCAUGUCG [ArgXB 15 #Zipper #MS2Left #StaticStem #Blueprint] | 73.3
32 | ACAUGAGGAUCACCCAUGUAAGAUGCAGAAGGAGCGGGAAAUAACCCAGGUAGGUCGCUGCGGUUUGGAUUAUUGUGUUCGUGAA [#08 Exclusion - Arginine A] | 12.1
33 | AAAAGAGGUGGAAGGAGCGGGAGACAUGAGGAUCACCCAUGUGAUGUGACGAAAGGGUCAGCCCAGGUAGGUCGCCAUGUCGAAA [yuyymullin] | 62.9
34 | CCAUGCAGGUCGGCCGCCACUACACACAUGAGGAUCACCCAUGUAGUUACUGGGUGAAGUGGCAGUAGGACCGGGACCUGCACAC [Brourdmod20] | 289
35 | GGCGCGAGCCAACAUGAGGAUCACCCAUGUCGAGGACCGGUACGGCCGCCACUCGAACGAGUGAAGCGCGCGCGCGCGCGCGCGC [Uaa] | 61.5
36 | ACAUGAGGAUCACCCAUGUGAUGGCACGAUACCAGCUGAUCCCGUGGCCCUUGGCAGCGUCCGGUGUGGUCCGGCGGGUGGGACG [qqwmullin] | 21.5
37 | GGGUACAUCGCGGCCGCCACUUGUGUAAAUACAUGAGGAUCACCCAUGUCGAUGGAGACAUCGGGAAGGACCGGGUGAUGUACCG | 342
38 | AAAAUCCUACCUGAGGAUCACCCUGGUGAAGGAGCGCCCGAAAGGGCAGGUAGGUCGCACCUGAGGAUCACCCGGGUAACCUAAA [ArgEX 14 #DoubleMS2 #OpenEnded #AlternativeMS2] | 170
39 | GCUGCUUAGGGAAGGAGCGCUGCGGAAUUGUGGAGGACAUGAGGAUCACCCAUGUUCCUGCGGCAGGUAGGUCGCUUUGGGCAGC [#17 Exclusion - Arginine B] | 40.3
40 | GCUGUACCAUGAAGGAGCGCUUUAAUUAUAGAAGAUACAUGAGGAUCACCCAUGUUCCUCGAGCAGGUAGGUCGCAUGGUACAGC [SSAB #18] | 20.3

Same assay, conditions: Eterna round: R107; input ligand: theophylline 20 uM

Row | Sequence | apparent KD of MS2 coat protein [nM]
41 | AAAGCUACGUAAAAUAAAACUACAUGUGAAGGAGCGCGCGAAAGCGCAGGUAGGUCGCACAUGAGGAUCACCCAUGUCGUAGCAA [MAT - Exclusion Arginine A - Mod of Eli - D5] | 101
42 | UGUUUGGUGCGCGAGUGUUGGAUAAUUGAUACCAGUGUAGAUGUGCGCCCUUGGCAGCGAAUCCUAACAUGAGGAUCACCCAUGU [5.Y] | 59.5
43 | GGACAUGCAGGAAGGAGCGACACGCAGAAACUGCAAAAUCCUCCACACGAGGAUCACCCGUGUCAGGUAGGUCGCCUGCAUGUCG [ArgXB 15 #Zipper #MS2Left #StaticStem #Blueprint] | 140
44 | UGGCAGCACCUCAUGUGCUGCCAAGGUGAUACCAGCAUCGAAAGAUGCCCUUGGCAGCACCAACAUGAGGAUCACCCAUGUAAUA [(MT)''-(M)'-(T')-(Theo)-(Ms2)_Design1/22_7] | 374
45 | CUCGUCAACUCGGCCGCCACUGACGUGUGGUCAGGCCUGUAGAAACACAUGAGGAUCACCCAUGUCAGGACCGGGAGCUUUAUUA [theeternabot_exclusion_MS2_Trp_B_26] | 73.5
46 | UCGUGAGUUUCGGAUACCAGUGUUGUCGAUACAUGAGGAUCACCCAUGUUAGAGGAUGUACACCCUUGGCAGCCGGCUGUGGCGG [lplmullin] | 16.1
47 | ACAUGAGGAUCACCCAUGUAAGAUGCAGAAGGAGCGGGAAAUAACCCAGGUAGGUCGCUGCGGUUUGGAUUAUUGUGUUCGUGAA [#08 Exclusion - Arginine A] | 18.8
48 | AGUCUAUGGAGAGAUACCAGUGAGAGCCAUAGACAUGAGGAUCACCCAUGUGACAUGGAUCACCCUUGGCAGCUCAACGAGCUCU [#20 Same State - Theophylline B] | 106
49 | AAAAGAGGUGGAAGGAGCGGGAGACAUGAGGAUCACCCAUGUGAUGUGACGAAAGGGUCAGCCCAGGUAGGUCGCCAUGUCGAAA [yuyymullin] | 76.2
50 | UUAUAUACUACGGCCGCCACUGAACAUGAGGAUCACCCAUGUAAUGUUCAGAUUUUUUUUUUUUACAGGACCGGGUAGAAUUAAA [Tryptophan B 2] | 127
51 | CCAUGCAGGUCGGCCGCCACUACACACAUGAGGAUCACCCAUGUAGUUACUGGGUGAAGUGGCAGUAGGACCGGGACCUGCACAC [Brourdmod20] | 446
52 | GGCGCGAGCCAACAUGAGGAUCACCCAUGUCGAGGACCGGUACGGCCGCCACUCGAACGAGUGAAGCGCGCGCGCGCGCGCGCGC [Uaa] | 106
53 | ACAUGAGGAUCACCCAUGUGAUGGCACGAUACCAGCUGAUCCCGUGGCCCUUGGCAGCGUCCGGUGUGGUCCGGCGGGUGGGACG [qqwmullin] | 97.8
54 | UACAUGAGGAUCACCCAUGUAUAACCGGUACGAGGACCGGUACGGCCGCCACUCGAAACAUGAGGAUCACCCAUGUGCUACUAUU [Same State Trypophan A GF 22] | 36.4
